Data on two molecules can be found in article PMC9352551, “Energetic determinants of animal cell polarity regulator Par-3 interaction with the Par complex” (The Journal of Biological Chemistry, 2022).

The chains are these.
B1: aPKC KD-PBM (domain or fragment, Drosophila, UniProt A1Z9X0 259-606, looked up)
chain: YSLNDFELIRVIGRGSYAKVLMVELRRTRRIYAMKVIKKALVTDDEDIDWVQTEKHVFETASNHPFLVGLHSCFQTPSRLFFVIEFVRGGDLMYHMQRQRRLPEEHARFYAAEISLALNFLHEKGIIYRDLKLDNVLLDHEGHIKLTDYGMCKEGIRPGDTTSTFCGTPNYIAPEILRGEDYGFSVDWWALGVLLYEMLAGRSPFDLAGASENPDQNTEDYLFQVILEKTIRIPRSLSVRAASVLKGFLNKNPADRLGCHRESAFMDIVSHPFFKNMDWELLERKQVTPPFKPRLDSDRDLANFPPEFTGEAVQLTPDDDHVIDNIDQSEFEGFEYVNPLLMSLEDCV
notes: From pBH; also called his aPKC kinase domain-PBM; aPKC kinase domain–PBM; source: E. coli BL21 (DE3), his-purified (Ni-NTA) partially under denaturing conditions (8 M urea)
B2: MBP-Par-3 PDZ1-APM (domain or fragment, Drosophila, UniProt O96782 309-987, looked up)
chain: DGEMLLIINEYGSPLGLTALPDKEHGGGLLVQHVEPGSRAERGQLRRDDRILEINGIKLIGLTESQVQEQLRRALESSELRVRVLRGDRNRRQQRDSKVADMVEVATVSPTRKPHAAPVGTSLQVANTRKLGRKIQIMLKKGPNGLGFSVTTRDNPAGAHCPIYIKNILPRGAAIEDGRLKPGDRLLEVDGTPMTGKTQTDVVAILRGMPAGATVRIVVSRQQELAEQADQPAEKSAGVAVAPSVAPPAVPAAAAPAPPIPVQKSSSARSLFTHQQQSQLNESQHFIDAGSESAASNDSLPPSSNSWHSREELTLHIPVHDTEKAGLGVSVKGKTCSNLNASGSSASSGSNGLMKHDGDLGIFVKNVIHGGAASRDGRLRMNDQLLSVNGVSLRGQNNAEAMETLRRAMVNTPGKHPGTITLLVGRKILRSASSSDILDHSNSHSHSHSNSSGGSNSNGSGNNNNSSSNASDNSGATVIYLSPEKREQRCNGGGGGGSAGNEMNRWSNPVLDRLTGGICSSNSAQPSSQQSHQQQPHPSQQQQQQRRLPAAPVCSSAALRNESYYMATNDNWSPAQMHLMTAHGNTALLIEDDAEPMSPTLPARPHDGQHCNTSSANPSQNLAVGNQGPPINTVPGTPSTSSNFDATYSSQLSLETNSGVEHFSRDALGRRSISEKHHA
notes: Par-3 (Bazooka), Drosophila, residues 309-987 (PDZ1 to the aPKC phosphorylation motif); From pMAL; construct as in PMID 32084408; not shown: MBP, N-terminal, kept; His tag, C-terminal, kept

What all share (test): supernatant depletion assay; MBP-Par-3 (C-terminal his-tag, his-purified) on amylose resin (solid phase); soluble protein left in the supernatant quantified on a Coomassie gel; 10 min at 20 °C; 10 mM Hepes pH 7.5, 100 mM NaCl, 1 mM DTT, 200 μM ATP, 5 mM MgCl2, 0.1% Tween-20; 'apparent'
What all share (settings): both partners purified

Assay [1] deals with B2.
Assay [2] has as its target T1, Par complex (his-Par-6, aPKC) (Drosophila, UniProt O97111 1-351; A1Z9X0 1-606).
T1 construct: Par-6, Drosophila, residues 1-351; atypical protein kinase C (aPKC), Drosophila, residues 1-606; Construct as in PMID 32084408; also called full Par complex; source: HEK 293F, transfected (pCMV), purified (Ni-NTA or cobalt resin, Source Q anion exchange)
T1 sequence (looked up) 1: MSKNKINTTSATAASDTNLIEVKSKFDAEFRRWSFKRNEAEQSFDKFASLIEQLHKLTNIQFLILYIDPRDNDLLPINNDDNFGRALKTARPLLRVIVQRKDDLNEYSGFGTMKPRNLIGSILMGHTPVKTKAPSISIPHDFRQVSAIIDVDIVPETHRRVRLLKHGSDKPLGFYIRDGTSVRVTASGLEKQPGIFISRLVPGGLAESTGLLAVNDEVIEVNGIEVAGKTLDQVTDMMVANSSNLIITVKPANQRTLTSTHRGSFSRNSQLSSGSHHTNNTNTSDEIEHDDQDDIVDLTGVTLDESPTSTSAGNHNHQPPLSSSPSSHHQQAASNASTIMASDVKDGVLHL
T1 sequence (looked up) 2: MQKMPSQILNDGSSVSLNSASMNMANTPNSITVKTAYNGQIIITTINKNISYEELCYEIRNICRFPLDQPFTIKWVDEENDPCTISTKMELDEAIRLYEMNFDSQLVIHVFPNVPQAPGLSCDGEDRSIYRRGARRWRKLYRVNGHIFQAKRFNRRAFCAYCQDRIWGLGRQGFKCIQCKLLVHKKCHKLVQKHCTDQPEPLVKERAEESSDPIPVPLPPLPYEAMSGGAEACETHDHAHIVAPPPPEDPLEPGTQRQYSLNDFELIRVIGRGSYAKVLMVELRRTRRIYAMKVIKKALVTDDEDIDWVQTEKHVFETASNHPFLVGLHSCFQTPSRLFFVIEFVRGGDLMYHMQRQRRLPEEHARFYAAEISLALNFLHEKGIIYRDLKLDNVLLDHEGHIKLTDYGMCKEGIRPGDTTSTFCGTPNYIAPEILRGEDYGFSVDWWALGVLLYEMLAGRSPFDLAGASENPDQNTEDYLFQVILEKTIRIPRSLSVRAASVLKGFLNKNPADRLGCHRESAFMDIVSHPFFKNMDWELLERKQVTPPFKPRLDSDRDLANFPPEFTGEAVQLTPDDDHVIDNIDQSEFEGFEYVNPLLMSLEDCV

Assay [3] addresses T2, Par complex Par-6ΔPBM (Drosophila, UniProt O97111 1-343; A1Z9X0 1-606).
T2 construct: aPKC, Drosophila, residues 1-606; Construct as in PMID 32084408; also called Par complex lacking the Par-6 PBM; Par-6ΔPBM/aPKC; source: HEK 293F, transfected (pCMV), purified (Ni-NTA or cobalt resin, Source Q anion exchange)
T2 sequence (looked up) 1: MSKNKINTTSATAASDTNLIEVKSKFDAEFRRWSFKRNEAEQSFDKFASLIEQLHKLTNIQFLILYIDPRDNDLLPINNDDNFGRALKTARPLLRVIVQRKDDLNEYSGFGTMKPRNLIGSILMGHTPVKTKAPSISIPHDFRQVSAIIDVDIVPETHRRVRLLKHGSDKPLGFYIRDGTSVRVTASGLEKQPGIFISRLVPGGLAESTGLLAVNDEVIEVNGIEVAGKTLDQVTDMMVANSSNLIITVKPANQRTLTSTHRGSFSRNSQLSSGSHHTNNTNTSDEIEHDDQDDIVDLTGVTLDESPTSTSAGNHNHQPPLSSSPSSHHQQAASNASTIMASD
T2 sequence (looked up) 2: T1 sequence (looked up) 2

On to B1, for which, in assay [1], the binding result was “binds”.
On to B2, for which the binding result in assay [2] and in assay [3] was “binds” each time.
